5 molecules from publication PMC6615629, “Hsp70-nucleotide exchange factor (NEF) Fes1 has non-NEF roles in degradation of gluconeogenic enzymes and cell wall integrity” (PLoS Genetics, 2019) can be followed below.

Where a chain is given by its changes, count along the chain named. In names and notes the source's numbering stands.

The chains are these.
B1: GST-Fes1^A79R,R195A (natural protein, yeast (S. cerevisiae), UniProt P38260 1-290, looked up)
chain: MEKLLQWSIANSQGDKEAMARAGQPDPKLLQQLFGGGGPDDPTLMKESMAVIMNPEVDLETKLVAFDNFEMLIENLDNRNNIENLKLWEPLLDVLVQTKDEELRAAALSIIGTAVQNNLDSQNNFMKYDNGLRSLIEIASDKTKPLDVRTKAFYALSNLIRNHKDISEKFFKLNGLDCIAPVLSDNTAKPKLKMAAIALLTAYLSSVKIDENIISVLRKDGVIESTIECLSDESNLNIIDRVLSFLSHLISSGIKFNEQELHKLNEGYKHIEPLKDRLNEDDYLAVKYVL
notes: Fes1, yeast Hsp70 nucleotide exchange factor, double mutant A79R,R195A; also called Fes1RA; RA; source: E. coli expression, purified; not shown: GST, N-terminal, kept
B2: His6-Fbp1ΔP2 (enzyme, yeast (S. cerevisiae), UniProt P09201 1-348, looked up)
chain: MTLVNGPRRDSTEGFDTDIITLPRFIIEHQKQFKNATGDFTLVLNALQFAFKFVSHTIRRAELVNLVGLAGASNFTGDQQKKLDVLGDEIFINAMRASGIIKVLVSEEQEDLIVFPTNTGSYAVCCDPIDGSSNLDAGVSVGTIASIFRLLPDSSGTINDVLRCGKEMVAACYAMYGSSTHLVLTLGDGVDGFTLDTNLGEFILTHPNLRIPPQKAIYSINEGNTLYWNETIRTFIEKVKQPQADNNNKPFSARYVGSMVADVHRTFLYGGLFAYPCDKKSPNGKLRLLYEAFPMAFLMEQAGGKAVNDRGERILDLVPSHIHDKSSIWLGSSGEIDKFLDHIGKSQ
notes: Fbp1, yeast gluconeogenic enzyme, proline 2 deleted; the initiator methionine is counted as residue 1; also called Fbp1P2Δ; source: E. coli expression, purified; not shown: His6, N-terminal, kept
B3: His6-Fbp1 P2A (enzyme, yeast (S. cerevisiae), UniProt P09201 1-348, looked up)
chain: MATLVNGPRRDSTEGFDTDIITLPRFIIEHQKQFKNATGDFTLVLNALQFAFKFVSHTIRRAELVNLVGLAGASNFTGDQQKKLDVLGDEIFINAMRASGIIKVLVSEEQEDLIVFPTNTGSYAVCCDPIDGSSNLDAGVSVGTIASIFRLLPDSSGTINDVLRCGKEMVAACYAMYGSSTHLVLTLGDGVDGFTLDTNLGEFILTHPNLRIPPQKAIYSINEGNTLYWNETIRTFIEKVKQPQADNNNKPFSARYVGSMVADVHRTFLYGGLFAYPCDKKSPNGKLRLLYEAFPMAFLMEQAGGKAVNDRGERILDLVPSHIHDKSSIWLGSSGEIDKFLDHIGKSQ
notes: Fbp1, yeast gluconeogenic enzyme, P2A; the initiator methionine is counted as residue 1; source: E. coli expression, purified; not shown: His6, N-terminal, kept
B4: His6-Fbp1 (enzyme, yeast (S. cerevisiae), UniProt P09201 1-348, looked up)
chain: B3 chain with A2P
notes: Fbp1, yeast gluconeogenic enzyme; the initiator methionine is present in the purified protein and is counted as residue 1; also called wild type His6-Fbp1; not shown: His6, N-terminal, kept
B5: His6-Fbp1^P2A,S12A,T13A (enzyme, yeast (S. cerevisiae), UniProt P09201 1-348, looked up)
chain: B3 chain with S12A, T13A
notes: Fbp1, yeast gluconeogenic enzyme, P2A,S12A,T13A; the initiator methionine is counted as residue 1; source: E. coli expression, purified; not shown: His6, N-terminal, kept

Assay in all cases: pull-down; His6-Fbp1 (wild type or mutant) pulled down on Talon metal affinity resin; reactions with two or all three proteins; 6 μg each of His6-Fbp1 (1.6 μM), Hsp70 (0.9 μM) and GST-Fes1 (1.09 μM), with or without ATP, ADP or AMP (2.5 mM); 50 mM Tris-HCl pH 7.5, 150 mM NaCl, 2% glycerol, 5 mM MgCl2; 30 min at 4°C; washed with 5 mM imidazole, eluted with 250 mM imidazole; stained SDS-PAGE gels, bands quantified …
What all share (details): both partners purified

The target of the assay “His6-Fbp1” is B4.
Another assay addresses T1, Ssa1 (yeast (S. cerevisiae), UniProt P10591 1-642).
T1 construct: Ssa1, yeast cytosolic Hsp70; non-tagged; also called Hsp70; source: E. coli Rosetta 2(DE3), purified as described [51]

Another assay deals with T2, Ssa2 (yeast (S. cerevisiae), UniProt P10592 1-639).
T2 construct: Ssa2, yeast cytosolic Hsp70; non-tagged; also called Hsp70; source: E. coli Rosetta 2(DE3), purified as described [51]
T2 sequence (P10592 whole entry): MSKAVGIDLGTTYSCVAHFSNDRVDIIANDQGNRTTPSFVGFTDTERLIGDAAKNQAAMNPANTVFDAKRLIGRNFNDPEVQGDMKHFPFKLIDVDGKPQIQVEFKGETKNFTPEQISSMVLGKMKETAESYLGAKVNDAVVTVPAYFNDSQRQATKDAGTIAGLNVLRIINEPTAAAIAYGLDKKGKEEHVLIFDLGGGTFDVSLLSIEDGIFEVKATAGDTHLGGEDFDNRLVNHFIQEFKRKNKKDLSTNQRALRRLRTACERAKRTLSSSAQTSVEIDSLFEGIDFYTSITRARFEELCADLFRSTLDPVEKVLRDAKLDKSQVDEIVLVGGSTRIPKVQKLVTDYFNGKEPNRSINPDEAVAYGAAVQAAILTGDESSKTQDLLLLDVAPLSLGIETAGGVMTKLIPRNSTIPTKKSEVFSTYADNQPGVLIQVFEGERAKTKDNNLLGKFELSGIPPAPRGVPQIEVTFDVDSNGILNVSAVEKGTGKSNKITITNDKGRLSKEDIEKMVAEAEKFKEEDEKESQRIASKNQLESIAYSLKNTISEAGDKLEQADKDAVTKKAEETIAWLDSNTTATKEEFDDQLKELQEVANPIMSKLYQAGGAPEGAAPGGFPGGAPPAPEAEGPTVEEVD

T1 sequence (P10591 whole entry): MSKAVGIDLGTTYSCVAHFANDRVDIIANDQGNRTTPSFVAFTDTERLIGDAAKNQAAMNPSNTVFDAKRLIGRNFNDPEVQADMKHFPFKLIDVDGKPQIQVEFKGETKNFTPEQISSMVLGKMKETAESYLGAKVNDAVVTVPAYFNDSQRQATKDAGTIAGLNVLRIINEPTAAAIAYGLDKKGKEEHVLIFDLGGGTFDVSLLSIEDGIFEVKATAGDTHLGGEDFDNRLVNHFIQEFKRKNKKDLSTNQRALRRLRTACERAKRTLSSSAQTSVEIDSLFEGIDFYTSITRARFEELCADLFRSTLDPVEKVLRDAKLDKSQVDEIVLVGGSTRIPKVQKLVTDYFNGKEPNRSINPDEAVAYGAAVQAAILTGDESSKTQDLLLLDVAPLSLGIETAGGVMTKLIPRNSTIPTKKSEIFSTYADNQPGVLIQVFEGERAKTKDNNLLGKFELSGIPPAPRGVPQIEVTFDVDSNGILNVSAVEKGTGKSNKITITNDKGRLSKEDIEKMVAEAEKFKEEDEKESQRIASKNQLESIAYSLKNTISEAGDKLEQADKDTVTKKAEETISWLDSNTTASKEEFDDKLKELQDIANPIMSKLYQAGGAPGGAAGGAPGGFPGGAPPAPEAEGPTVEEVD

As for B1, in the assay with His6-Fbp1, the “ratio of amounts Fes1^A79R,R195A/Ssa1 pulled down by Fbp1, no nucleotide” value worked out at 1.7; the “ratio of amounts Fes1^A79R,R195A/Ssa1 pulled down by Fbp1, with ADP” value amounted to 5; the “ratio of amounts Fes1^A79R,R195A/Ssa1 pulled down by Fbp1, with AMP” value came out at 3.3; the “ratio of amounts Fes1^A79R,R195A/Ssa1 pulled down by Fbp1, with ATP” value was found to be 6.4. In the assay with His6-Fbp1, the “ratio of amounts Fes1^A79R,R195A/Ssa2 pulled down by Fbp1, no nucleotide” value came out at 2.4; the “ratio of amounts Fes1^A79R,R195A/Ssa2 pulled down by Fbp1, with ADP” value came to 4.5; the “ratio of amounts Fes1^A79R,R195A/Ssa2 pulled down by Fbp1, with AMP” value worked out at 1.9; the “ratio of amounts Fes1^A79R,R195A/Ssa2 pulled down by Fbp1, with ATP” value stood at 4.3.
With B2, the binding result in the assay with Ssa1 and in the assay with Ssa2 was “binds” throughout.
As to B3, the binding result with Ssa1 and in the assay with Ssa2 was “binds” each time.
Consider B4, for which the binding result in the assay with Ssa1 and with Ssa2 was “binds” each time.
Turning to B5, the binding result in the assay with Ssa1 and in the assay with Ssa2 was “binds” each time.
